Measured values as given in PMC10565793, “Biochemical and X-ray analyses of the players involved in the faRel2/aTfaRel2 toxin–antitoxin operon” (Acta Crystallographica. Section F, Structural Biology …, 2023).

Biological target: T1, FaRel2^Y128F (catalytically impaired toxin FaRel2 from Coprobacillus sp. D7) (Coprobacillus sp. D7, Y128F (stands in the printed letters))
T1 construct: The His6-SUMO tag was removed with UlpI, and complete removal was confirmed by anti-His Western blot; also called tagless FaRel2^Y128F; His6-SUMO-FaRel2^Y128F (before cleavage); source: E. coli BL21(DE3), purified (Ni-NTA, SEC, UlpI cleavage, TALON, SEC); not shown: His6, N-terminal, cleaved; SUMO, N-terminal, cleaved
Test: SEC; analytical SEC on a Superdex 75 Increase column in 25 mM HEPES, 300 mM NaCl, 1 mM TCEP, 2 mM MgCl2; proteins run alone, or FaRel2^Y128F and ATfaRel2 mixed in a 1:1.2 molar ratio; molecular weights estimated from elution volume
Settings: both partners purified

B1: 6×His-TEV-ATfaRel2 (antitoxin ATfaRel2 from Coprobacillus sp. D7) (natural protein)
chain: AMCYIIAKRFKKSGCVALKAKRGKELADFATDLQKKLGYDIQIVAITRPTAYGEYEPYKFVNSFEEFSIEASRL
notes: The tag is not reported as removed; also called His6-TEV-ATfaRel2; source: E. coli BL21 (DE3), purified (Ni-NTA, SEC)
- stoichiometry N: 1 ATfaRel2 per FaRel2^Y128F (2:2 heterotetramer)
